{"source": "patent US20080292628A1", "biological_target": "human VEGF (human) (UniProt P15692)", "sequence (P15692 other isoform, or with tags, fused parts or gaps limits assumed)": "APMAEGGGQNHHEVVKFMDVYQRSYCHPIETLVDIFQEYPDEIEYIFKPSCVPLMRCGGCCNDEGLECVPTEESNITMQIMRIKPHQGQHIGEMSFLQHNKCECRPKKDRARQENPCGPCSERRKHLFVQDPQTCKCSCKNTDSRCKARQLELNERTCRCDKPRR", "assay": "cell-based or functional assay"}
{"substance": "VEGFR1-Fc-IL-1ra (Fc fusion)", "values": [{"measurement": "EC50, inhibition of VEGF (10 ng/ml) dependent HUVE cell proliferation", "result": 0.015, "unit": "µg/mL"}]}
